Test system: whole blood
Experiment: PDGF release in ACD-anticoagulated whole blood treated with activators (Example 10)
Assay type: cell-based, human
Conditions: after 60 minutes
Protocol: Whole blood was collected from a healthy volunteer by a certified phlebotomist into a 8.5 mL ACD-containing Vacutainer. 375 ul of 0.167 mM PAR1-AP in ultrapure water or 200 ul of 0.1 unit/microliter of thrombin (Zymogenetics) were injected into the vacutainers via a sterile 1 mL syringe; samples were gently mixed by inverting 10 times and incubated at ambient temperature for specified time. The samples were then centrifugated at 2,380×g for 5 minutes at ambient temperatures and ˜3 mL clear supernatants were collected from the top of each sample and transferred into sterile 15 mL conical tubes. Concentration of PDGF-BB in each sample was determined by ELISA (Quantikine kit, R&D Systems) according to the manufacturer's protocol.

Row | Molecule | Signs of coagulation
1 | Nc1ncnc2c1ncn2[C@@H]1O[C@H](COP(=O)(O)OP(=O)(O)O)[C@@H](O)[C@H]1O [ADP, Adenosine-5′-diphosphate] | did not
2 | Thrombin | some signs of coagulation

Molecular target: T1, Collagenase (Matrix metalloproteinase I) (Homo sapiens, UniProt P03956)
T1 sequence (P03956 100-469): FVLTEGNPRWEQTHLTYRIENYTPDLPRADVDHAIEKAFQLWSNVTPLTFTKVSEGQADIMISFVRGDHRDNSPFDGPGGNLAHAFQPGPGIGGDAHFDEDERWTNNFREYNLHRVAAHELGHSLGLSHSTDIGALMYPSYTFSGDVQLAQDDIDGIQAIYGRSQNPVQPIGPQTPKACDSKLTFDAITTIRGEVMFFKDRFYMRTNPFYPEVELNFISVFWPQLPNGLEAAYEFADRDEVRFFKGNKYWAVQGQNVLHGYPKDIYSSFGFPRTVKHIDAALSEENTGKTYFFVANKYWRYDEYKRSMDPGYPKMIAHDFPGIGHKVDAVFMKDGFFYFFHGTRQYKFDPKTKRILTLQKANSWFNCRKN
Experiment: not given
Conditions: cited from earlier work

Row | Molecule | kcat/Km relative to that of PQGIAG
3 | GPQGIAGQ | 100%
4 | GPQGIASQ | 130%
5 | GPQGIFGQ | >300%
6 | GPQGIWGQ | >700%
7 | GPQGRAGQ | <5%
8 | GPQGVAGQ | 9%
9 | GPVGIAGQ | 30%

Test system: platelets
Experiment: Selectively activated PRP and washed platelet releasates, PDGF-BB ELISA (Example 11)
Assay type: cell-based, human
Conditions: PRP and WP preparations, Patients A and B
Protocol: Fresh whole blood (WB) was collected into tubes containing appropriate levels of Anti-coagulant Citrate Dextrose (ACD) to prevent platelet activation and coagulation. WB samples were then split into 4 conical tubes, 50 ml WB+ACD per tube. Red Blood Cells (RBCs) were then removed by centrifuging the tubes at 3500 rpm for 10 minutes in a clinical centrifuge. Supernatants (approximately 25 ml) with some RBCs remaining were pooled into 2 conical tubes and centrifuged again at 3500 rpm for 10 minutes. Clear supernatants (plasma) were then transferred to new 50 ml conical, and Buffy Coat (BC) with some RBCs put into 15 ml conicals. […]
PRP and WPs were aliquotted into 1 ml volumes, and 4 tubes of PRP and 4 tubes of WPs were used for preparation of activated releasates: (1) no selective activation, in which no platelet activator was added (2) PAR1 activation, in which 20 ul of 500 uM PAR1 Activating Peptide (PAR1 AP) (SFLLRN, SEQ ID: 40) was added, (3) PAR4 activation, in which 20 ul of 500 uM PAR4 Activating Peptide (PAR4 AP) (AYPGKF, SEQ ID: 44) was added, and (4) ADP activation, to which 20 ul of 2.5 mM ADP (Adenosine-5′-diphosphate) was added. […] PDGF-BB levels were then measured by ELISA using a Human PDGF-BB Quantikine ELISA Kit (R&D Systems).

Row | Molecule | Release of PDGF-BB compared between activators
10 | SFLLRN [PAR1-AP] | greatest release of PDGF-BB

From patent US11160866B2, “Biomaterials for delivery of blood extracts and methods of using same” (Mosaic Biosciences, Inc., priority 2012, dated 2021)
